# Source: the supplement of paper PMC9732359
# ± gives the uncertainty stated by the source.
# Assay: protein stability index of a GFP-peptide fusion (yeast GPS) (PSI 1-4); higher = more stable; sorted into four equal gates, so the index is relative within each strain
# Details: doa10∆
# In short: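 Tiled yeast protein peptides of 17 residues were each joined downstream of GFP, on plasmids that also express Cherry. The pooled library was maintained in yeast, and mid-log cultures in leucine-free medium were sorted into four equal gates on the GFP/Cherry ratio. Plasmids from every gate were amplified by PCR and sequenced on Illumina, with barcodes linking reads to strains. The protein stability index of a peptide is its gate-number-weighted read frequency summed over the gates.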
row,Sequence,protein stability index
1,ESLILKWDNQSASRAKN [RGR1],3.16 ± 0.05
2,ESLREIPYGPDFDNIEF [SEC65],3.1 ± 0.072

# Same assay, conditions: pdr5∆
row,Sequence,protein stability index
1,EFEYDDEPDEQGNPKKR [CYT1],3.28 ± 0.073
2,EFFSTNWLSIFNDFSNI [REC8],2.91 ± 0.067
3,EFIFGTYNMIDAAAEKR [ARP7],3.02 ± 0.057
4,EFISIYSNSHQMAVHIA [RET1],3.45 ± 0.19
5,EFQIEDAIWSLVFQLAK [SRB8],3.36 ± 0.23
6,EFTLFMDIAERIAVLHQ [YGL172W/NUP49],2.54 ± 0.056
7,EFVSYYYAHSIPSSKID [SNU114],1.9 ± 0.052
8,EGIEKMGVRTFSQKEMA [FAS2],2.73 ± 0.24
9,EGKRIAFGFVDRTLPHF [RPO21],2.98 ± 0.054
10,EGLELLGWIHTQTEELK [PRP8],2.65 ± 0.091
11,EGRLYQVEYALESISHA [PRE9],2.19 ± 0.068
12,EGTSISVHLIECYKQLF [YCS4],3.39 ± 0.12
13,EHFSHFGHIMEDFQVLR [YDL088C/ASM4],2.92 ± 0.045
14,EHIIRDVHNGYILRYLH [COB],1.7 ± 0.13
15,EHRRYDDQLKQRRQNIR [RPT4],2.46 ± 0.18
16,EHSQVEQTCVKLLDSGC [SRP72],3.38 ± 0.083
17,EIAGLSPYERRLIDLIR [RPL36A],2.37 ± 0.077
18,EIEIEGVMSLLQKSSKS [YAR002W/NUP60],3.05 ± 0.16
19,EIFQLFTNPSVDIQIIN [SWI1],2.88 ± 0.09
20,EILTNQQRGITYLNEVL [YGR119C/NUP57],3.09 ± 0.079
21,EIMYTGVSISVSFNSKQ [SMC3],1.99 ± 0.07
22,EISTSKKNNLEFGTYGK [RPN14],2.13 ± 0.061
23,EITAKEVYDFTHAVGNN [FAS1],3.15 ± 0.051
24,EITQQEKGLNELSIRDV [SMC4],2.64 ± 0.076
25,EITVVKPDSDIVALSSE [PRE6],3.23 ± 0.051
26,EKAKSAGVQGSKVSKQQ [RPL24B],3.4 ± 0.11

row,Sequence,protein stability index
1,EKIAAGYMQKPVYATIG [PRP28],2.67 ± 0.076
2,EKIKDIHNTKLPAYSGE [POP1],3.04 ± 0.057
3,EKIKKINYHQYISKAQN [SSN2],2.18 ± 0.041
4,EKIMILLVPLALLTKRL [CSN12],1.47 ± 0.04
5,EKKILNQFLKIKKKRKE [SMC1],3.06 ± 0.12
6,EKKNDENSTSNSKPEKS [YLR335W/NUP2],3.21 ± 0.1
7,EKLITSKLLVPQKNVKI [PRE10],2.6 ± 0.047
8,EKLKVNMEKEKDRIIDE [YIL149C/MLP2],3.05 ± 0.2
9,EKPQFKDGETTDANGKT [RPO26],3.3 ± 0.047
10,EKSDALVGVYRQQQENS [SMC1],3.37 ± 0.098
11,ELAAKEEPAKEEAPAPT [FAS2],3.24 ± 0.14
12,ELADLPKLKRIGLVKCT [GRR1],2.71 ± 0.051
13,ELAESTTTKIIDSTDHI [LRP1],3.11 ± 0.1
14,ELAGGNASLTIEDEDEP [SMC1],3.09 ± 0.14
15,ELAQYMKTNVHTQANEP [RGR1],2.99 ± 0.086
16,ELFKGYLADDIDADSLE [RPL5],3.21 ± 0.076
17,ELGAINLHALSMSLQSK [SWI1],2.33 ± 0.085
18,ELGISLEHPYGKEVEVL [SNU114],2.34 ± 0.086
19,ELGNMTMLITGQRPDRA [SIN4],2.83 ± 0.056
20,ELLDQVTLGREGQIIQR [CDC53],3.73 ± 0.18
21,ELLEYSDDIAENDNLDN [YCG1],3.27 ± 0.068
22,ELLKLLNDEYNYPQLTE [YCS4],3.11 ± 0.098
23,ELLPHYPFVTNDDIEWM [YJR042W/NUP85],2.93 ± 0.086
24,ELMRIISRNGDTSYKID [SMC1],3.08 ± 0.063
25,ELNEEKKRLMDIDDELN [SMC2],3.42 ± 0.14
26,ELNVKHVKQCQETCDKL [SMC2],3.47 ± 0.2

row,Sequence,protein stability index
1,ELPLLSPERFATLGIDP [RPT1],2.75 ± 0.18
2,ELPLVITMPATNGKPDM [ARP7],3.04 ± 0.074
3,ELRRFESSINTHPHAAD [SKI6],3.08 ± 0.054
4,ELSDSDRQIINEKMQLL [SIR4],2.8 ± 0.055
5,ELSIRFPQYKLTTFANQ [ARP7],1.51 ± 0.085
6,ELTDKLSALNSEISSLK [SMC1],2.76 ± 0.094
7,ELTKTKSSLYSAQDLLD [YIL149C/MLP2],2.84 ± 0.05
8,ELTQVPSARQKYMVKGG [UBP6],2.83 ± 0.095
9,EMAEKIDFTLLNRLLRL [PRP8],2.93 ± 0.058
10,EMNLHVPQTEEARAEAI [RPO31],3.08 ± 0.085
11,EMVENSSENNQIILAYI [SRP68],3.11 ± 0.088
12,ENEISSLLAMHKHNIMK [CDC53],2.99 ± 0.059
13,ENFSNGISLVMEIVANA [MED1],2.53 ± 0.054
14,ENGDEDEDEDEDEDDDD [QCR6],1.74 ± 0.038
15,ENLMVQRTCLMTVTFLI [YCS4],1.97 ± 0.045
16,ENSIGYNNRKCWPKDSR [PRP8],2.95 ± 0.18
17,EPEFHALSQSSLLKTKL [RRI1],2.69 ± 0.039
18,EPFNAGIKYHATPPLKR [SMC1],3.12 ± 0.071
19,EPILGQITLTFISELCS [YML103C/NUP188],2.32 ± 0.062
20,EPIYGVQYKLLSISVPS [SNU114],2.76 ± 0.18
21,EPKKDKESIVLPTVGFD [YOR098C/NUP1],3.43 ± 0.19
22,EPKKPSFTFASSKTSQP [YOR098C/NUP1],2.88 ± 0.037
23,EPKQKANAVQNNNGNSA [SRP21],3.24 ± 0.07
24,EPNLAAQQDSTNVRLYS [ECM29],2.9 ± 0.063
25,EPPLSYEQHIENIEPLD [PRP8],2.97 ± 0.097
26,EPTYRLVRYGLAEKVEK [RPS24A],3.42 ± 0.2

row,Sequence,protein stability index
1,EQDALFITRLAQGLLHL [RPN1],2.69 ± 0.12
2,EQLSKQRDLYKRKEELV [SMC2],3.1 ± 0.19
3,EQSNSRKRTRSEAEQID [YCG1],3.4 ± 0.26
4,EQTEGEPKKKRGFLGLF [SRP68],3.26 ± 0.11
5,EQVAEEAAAAEEGEEEE [RPS0B],3.33 ± 0.26
6,ERAKNVNGLLQVLMDIN [GAL11],3.15 ± 0.083
7,ERDCVIAYGASQLLLER [RET1],1.28 ± 0.057
8,ERDFYHSLREYINGKAT [RPO31],2.43 ± 0.044
9,ERDSYKLLASTEENKAN [YIL149C/MLP2],2.77 ± 0.047
10,ERFTKSKTLSLIQSYSL [FAS1],2.06 ± 0.043
11,ERGGKFHESGSQYSTMV [RGR1],3.45 ± 0.12
12,ERKKQSDVLRFLQRVRV [RPL15B],2.43 ± 0.062
13,ERKLKFSNRFLPVASPF [FAS1],3.16 ± 0.11
14,ERKRKSVRGAIVGPDLA [RPS6A],3.34 ± 0.075
15,ERLDKDKDRDTRRKRRQ [SNF5],3.27 ± 0.21
16,ERLVEFSNVNELQEKNV [YIL149C/MLP2],3.36 ± 0.24
17,ERQMNFLTNELIRLQME [SWI3],3.12 ± 0.072
18,ERSYPSEFANQNQGGAQ [ROX3],3.07 ± 0.092
19,ERVPKTQLDKLRPRKDS [SMB1],3.07 ± 0.062
20,ERVTALKNCKISNINIP [SMC1],3.25 ± 0.12
21,ERYFDCCTKFFTMMTSE [PCI8],2.44 ± 0.071
22,ESDGRMFIEEPTRMVRV [SRP54],2.99 ± 0.11
23,ESEEAETKDIRKQIQLL [SRB4],2.94 ± 0.086
